Tested on: MS2 coat protein
Experiment: apparent KD of MS2 coat protein; designed switch direction (-1 OFF switch, 1 ON switch): -1; higher = weaker reporter binding
Outline: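 Three titration conditions were used: no input, 200 uM small-molecule ligand, and an oligonucleotide input. In each, SNAP-549-labelled MS2 coat protein was raised from 0.7 or 1.5 nM, doubling, to 3 µM over designed RNA switches transcribed on Illumina chips by stalled E. coli RNA polymerase. Curve fits of normalised cluster fluorescence gave values whose per-design median over clusters is the apparent KD.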

[1] = input ligand: microRNA oligo, concentration not stated
[2] = Eterna round: R95, input ligand: microRNA oligo, concentration not stated
[3] = Eterna round: R95, input ligand: FMN 200 uM
[4] = Eterna round: R95, input ligand: none

Sequence | apparent KD of MS2 coat protein (input ligand: FMN 200 uM) | apparent KD of MS2 coat protein (input ligand: none) | apparent KD of MS2 coat protein [1] | apparent KD of MS2 coat protein [2] | apparent KD of MS2 coat protein [3] | apparent KD of MS2 coat protein [4]
UACAAGCUUUGGCGAUCCUACAUGAGGAUCACCCAUGUGGGCCCGCCAGAGGCGGGCCCAUUUGCCCGUCUUGUGAA [Energy optimization 2] (Eterna round: R97, puzzle: Sensor, turn-off variant 1) | 0.0163 µM | 0.0163 µM | – | – | – | –
UACAUGAGGAUCACCCAUGUUUUGUCGUGUAUGGUACCCAUCUAGGAUAUCGUGUUAUUGGACCACGAGAAGGAGAGUAUCAAU [Excl-NG3-LRO01] (Eterna round: R96, puzzle: Exclusion NG 3) | 0.0192 µM | 0.0241 µM | 0.0181 µM | – | – | –
UACAUGAGGAUCACCCAUGUUUUGUCGUGUAUGGUAUUUAUCUAGGAUAUCAAUGUAGUUAUUUAUGAGAAGGAGAAUAUUAAU [JMF's solution 41] (Eterna round: R96, puzzle: Exclusion NG 3) | 0.043 µM | 0.0508 µM | 0.0375 µM | – | – | –
UACAUGAGGAUCACCCAUGUUUUGUCGUGUAUGGUAUUUAUCUAGGAUAUCAUUUAAUUUAUUUAUGAGAAGGAGAAUAUUAAU [JMF's solution 99] (Eterna round: R96, puzzle: Exclusion NG 3) | 0.0298 µM | 0.0311 µM | 0.028 µM | – | – | –
UACAUGAGGAUCACCCAUGUUUUGUCGUGUUUGGUACCCGUUUAGGAUAUCGUGUUAUUGUAUCGCGAGAAGGAGAGUAUCUUU [Excl-NG3-LRO09] (Eterna round: R96, puzzle: Exclusion NG 3) | 0.0309 µM | 0.027 µM | 0.0271 µM | – | – | –
UACCCUAAGGUGAGGAUAUCUAGGCCUAGAGGUCAAGAGAAGGCACAUGAGGAUCACCCAUGUAGUUGAUACGA [BmEX4 B.25] (Eterna round: R97, puzzle: Brourd's mod of Exclusion 4) | 0.0774 µM | 0.0219 µM | – | – | – | –
UACGUGUCAGGAUAUGCGUUGGUACAGAAGUAUGGCCAACGGCAGAAGGGACAUGAGGAUCACCCAUGUCGUCG [Eternabot (L1) Solution 60] (Eterna round: R97, puzzle: Exclusion 4) | 0.139 µM | 0.0268 µM | – | – | – | –
UACUAUAAGGAGGAUAUCGUAUCGGAGACGAUACGAGAAGGCUUAACAUGAGGAUCACCCAUGUUCUUCAAUAU [Mat - Exclusion 6 - Eli Mod - D91] (puzzle: Exclusion 6) | – | – | – | 0.0148 µM | – | –
UACUGGACAGGAUAUGUUCUUGAGCACUUGAGGAUCACCCAAGUCAUCAAGAACUCAGGCACAGAAGGGUUUAUGA [salish99_ex5_r4_004] (Eterna round: R97, puzzle: Exclusion 5) | 0.022 µM | 0.0154 µM | – | – | – | –
UACUUGUUAGGAUAUCUUACAUUUGCAUUAUAGCAACUAUUGGAGAAGGGACAUGAGGAUCACCCAUGUUUGGG [tap-tap-tappy16] (Eterna round: R97, puzzle: Exclusion 4) | 0.602 µM | 0.486 µM | – | – | – | –
UAGAAUCGAGGAUAUACAUGAGGAUCACCCAUGUGUUGCCGCAUGAUAUGAUCGUCAGGUAGAAGGCGAUUAUA [Exclusion 3 - Mod of Jieux's Gilly Gone Silly 23 v.6] (puzzle: Exclusion 3) | – | – | – | 0.0834 µM | 0.0376 µM | 0.0829 µM
UAGACUGAAGGAUAUACGUGGUAUCCGGCUAAUCAAGGUUCACAUGAGGAUCACCCAUGUAGAAGGUCAGCUCG [Eternabot (L2) Solution 18] (Eterna round: R97, puzzle: Exclusion 2) | 0.359 µM | 0.0584 µM | – | – | – | –
UAGAUACAUGAGGAUCACCCAUGUGAGGAUAUGAGAAUUAUAUUAAAUGAAUGUAGUAUCAGAAGGCACAAAGG [JR_Ex1_Sub049] (Eterna round: R97, puzzle: Exclusion 1) | 0.197 µM | 0.13 µM | – | – | – | –
UAGAUUCAUUCCUCUAUAAACAUGAGGAUCACCCAUGUAAGUGAGGAUAUAGUAGGAGUUGUAUACUAGAAGGCACUUAGUUUU [JR_ExcNG3_Sub049] (Eterna round: R96, puzzle: Exclusion NG 3) | 0.0494 µM | 0.0133 µM | 0.0107 µM | – | – | –
UAGUACAUCUAUGGGAGUAACAUGAGGAUCACCCAUGUAUGUCUUGUUUUUUGUUCGUCAUAGGCCUUUUGAUUGGC [JR_SV3TOV1_Sub028] (puzzle: Sensor v3, turn-off variant 1) | – | – | – | 0.228 µM | 0.107 µM | 0.113 µM
UAUAAGAUAGGAUAUACAGGCCCGUCUUCAUAUCGAUCCCGACAUGAGGAUCACCCAUGUAGAAGGAUCGUAUA [Mod 22 - Jieux - Exclusion 2] (Eterna round: R97, puzzle: Exclusion 2) | 0.015 µM | 0.00825 µM | – | – | – | –
UAUAUAUAGUAAGGAUAUGUAAUUAUUUUAUAAACAGAAGGUACUGACAUGAGGAUCACCCAUGUUUUAGUGUGGGCAUGUAGA [JMF's solution 5] (Eterna round: R96, puzzle: Exclusion NG 1) | – | – | 0.0657 µM | – | – | –
UAUAUAUAGUAAGGAUAUGUAAUUAUUUUAUCAACAGAAGGUACUGACAUGAGGAUCACCCAUGUUUUAGUGUGGGCAUGUAGA [JMF's solution 49] (Eterna round: R96, puzzle: Exclusion NG 1) | – | – | 0.0617 µM | – | – | –
UAUAUAUAGUAAGGAUAUGUAUAUAUUGUAUAAACAGAAGGUACUGACAUGAGGAUCACCCAUGUUUUAGUGUGGGCAUGUAGA [JMF's solution 61] (Eterna round: R96, puzzle: Exclusion NG 1) | – | – | 0.0575 µM | – | – | –
UAUAUAUAGUAAGGAUAUGUAUUUAUCUUAUAAACAGAAGGUACUGACAUGAGGAUCACCCAUGUUUUAGUGUGGGCAUGUAGA [JMF's solution 17] (Eterna round: R96, puzzle: Exclusion NG 1) | 0.0599 µM | 0.0418 µM | 0.039 µM | – | – | –
UAUAUAUAGUAAGGAUAUGUAUUUAUUUUAUUAACAGAAGGUACUGACAUGAGGAUCACCCAUGUUUUAGUGUGGGCAUGUAGA [JMF's solution 25] (Eterna round: R96, puzzle: Exclusion NG 1) | – | – | 0.0777 µM | – | – | –
UAUAUGUCAGGAUAUUAGUAGUAAAUGAAUAAAAUUAUUACUGAGAAGGGACAUGAGGAUCACCCAUGUGCUUC [Mat - Exclusion 4 - Eli Mod - D25] (Eterna round: R97, puzzle: Exclusion 4) | 0.224 µM | 0.0279 µM | – | – | – | –
UAUGGUAAAGUCAGGAUAUACGUGCAGAUUUCUAGGUAGAAGGGACAUGAGGAUCACCCAUGUAUGGUAGUGUU [Ex4 #45] (Eterna round: R97, puzzle: Brourd's mod of Exclusion 4) | 0.0755 µM | 0.0812 µM | – | – | – | –

Source: the supplement of paper PMC9170038
